Reference: publication PMC4283936

Target: PhoP (Mycobacterium tuberculosis, UniProt P71814 1-247)
Experiment: ITC

B1: fbpA (dsDNA)
DNA 1: ATACTGACAGCAAGATCACAATTGAGCC
DNA 2: GGCTCAATTGTGATCTTGCTGTCAGTAT
Kd: 56.5 ± 2.6 nM

B2: pks3 -236 (dsDNA)
DNA 1: CGACGTCTGGTAGCGGCATGGCAACGGCCTGTG
DNA 2: CACAGGCCGTTGCCATGCCGCTACCAGACGTCG
Kd: 130 ± 11 nM

B3: icl -301 (dsDNA)
DNA 1: CCCAAGGCAGTCGCCTCGCTGTTCAATCTGT
DNA 2: ACAGATTGAACAGCGAGGCGACTGCCTTGGG
binding result: no binding

B4: papA4 (dsDNA)
DNA 1: AGTATCACTGCCCGATCACCGGTCGCCC
DNA 2: GGGCGACCGGTGATCGGGCAGTGATACT
binding result: no binding

B5: fadD21 (dsDNA)
DNA 1: CCTGTTTCAGCACATGCACAGCATTGCA
DNA 2: TGCAATGCTGTGCATGTGCTGAAACAGG
Kd: 50.3 ± 4.3 nM

B6: Rv1217c (dsDNA)
DNA 1: GAGGTCGCAGCCGAGCAACAGGTGGCAA
DNA 2: TTGCCACCTGTTGCTCGGCTGCGACCTC
Kd: 588 ± 17 nM

B7: hsp (dsDNA)
DNA 1: CCGGACACAGCTAACTCACAACGAAGCA
DNA 2: TGCTTCGTTGTGAGTTAGCTGTGTCCGG
Kd: 51.5 ± 4.3 nM

B8: ptrBa -244 (dsDNA)
DNA 1: ATCTTCACACCGGACTCGTCGCGGTACT
DNA 2: AGTACCGCGACGAGTCCGGTGTGAAGAT
binding result: no binding

B9: PE8 (dsDNA)
DNA 1: CAGATCACACCGCCATGTCAGCCGCCAA
DNA 2: TTGGCGGCTGACATGGCGGTGTGATCTG
binding result: no binding

B10: PPE50 (dsDNA)
DNA 1: CTTTTCACAGCAAAGTCCCAGAAATGGC
DNA 2: GCCATTTCTGGGACTTTGCTGTGAAAAG
Kd: 45.7 ± 1.7 nM

B11: Rv1639c (dsDNA)
DNA 1: CGGATCACAGGAAACCCCCAACAAATCA
DNA 2: TGATTTGTTGGGGGTTTCCTGTGATCCG
Kd: 198 ± 12 nM

B12: Rv0520 (dsDNA)
DNA 1: GCCCGCACAGCCACGCCGTAGCACCGGC
DNA 2: GCCGGTGCTACGGCGTGGCTGTGCGGGC
Kd: 472 ± 20 nM

B13: aroG (dsDNA)
DNA 1: TTCGTCTCATCACGTCCACAGACGATGC
DNA 2: GCATCGTCTGTGGACGTGATGAGACGAA
Kd: 1160 ± 41 nM

B14: Rv1517 (dsDNA)
DNA 1: CATTTTTCAGCAATTTCTCAGTAACGCT
DNA 2: AGCGTTACTGAGAAATTGCTGAAAAATG
binding result: no binding

B15: cfp2 (dsDNA)
DNA 1: TCGCTCACAGCTACGACACAGACTTGCC
DNA 2: GGCAAGTCTGTGTCGTAGCTGTGAGCGA
Kd: 21.4 ± 1.6 nM

B16: Rv3881c (dsDNA)
DNA 1: ATGGTCACAGTCGGGCCACAGTTCGAG
DNA 2: CTCGAACTGTGGCCCGACTGTGACCAT
Kd: 714 ± 51 nM

B17: pks3 -653 (dsDNA)
DNA 1: GGCGGCCCACTGCGCCTGCACCGCCGTGTTGG
DNA 2: CCAACACGGCGGTGCAGGCGCAGTGGGCCGCC
binding result: no binding

B18: Rv3143 (dsDNA)
DNA 1: AACCGCACAGCCCTCTAACCACTGCTCG
DNA 2: CGAGCAGTGGTTAGAGGGCTGTGCGGTT
binding result: no binding

B19: icl +20 (dsDNA)
DNA 1: ACCCCGAAGAGCGCGGAGCAGATCCAGCAGG
DNA 2: CCTGCTGGATCTGCTCCGCGCTCTTCGGGGT
binding result: no binding

B20: Rv3312a (dsDNA)
DNA 1: TGGGTCACAGCGAGTAATCAGCAAGTTC
DNA 2: GAACTTGCTGATTACTCGCTGTGACCCA
Kd: 160 ± 8 nM

B21: phoP -42 (dsDNA)
DNA 1: ACGAGCTTTCAGGAATTACACAATGACTGTG
DNA 2: CACAGTCATTGTGTAATTCCTGAAAGCTCGT
binding result: no binding

B22: Rv0964c (dsDNA)
DNA 1: GCGCGCACGGCACACGCACCGCATCGGC
DNA 2: GCCGATGCGGTGCGTGTGCCGTGCGCGC
Kd: 4350 ± 189 nM

B23: devR -116 (dsDNA)
DNA 1: CAGCTGTTCGTCGCGGACTCACACTCCGCGCAC
DNA 2: GTGCGCGGAGTGTGAGTCCGCGACGAACAGCTG
binding result: no binding

B24: cadI (dsDNA)
DNA 1: CGGTACACAGCGCTTGCAGGGCTTCAGG
DNA 2: CCTGAAGCCCTGCAAGCGCTGTGTACCG
Kd: 403 ± 20 nM

B25: icl -343 (dsDNA)
DNA 1: GACCGCGCTGTTACAACGCTCACATATGTGG
DNA 2: CCACATATGTGAGCGTTGTAACAGCGCGGTC
binding result: no binding

B26: devR -146 (dsDNA)
DNA 1: CGTCATCTGGCCGCCAACGCAAAGCCGGGTCA
DNA 2: TGACCCGGCTTTGCGTTGGCGGCCAGATGACG
binding result: no binding

B27: phoP -55 (dsDNA)
DNA 1: AGACTACTGGCAACGAGCTTTCAGGAATTACAC
DNA 2: GTGTAATTCCTGAAAGCTCGTTGCCAGTAGTCT
Kd: 104 ± 10 nM

B28: Rv3877 (dsDNA)
DNA 1: CTCGGCGCAGCGCGCGCTCAGCGACGCC
DNA 2: GGCGTCGCTGAGCGCGCGCTGCGCCGAG
Kd: 1150 ± 66 nM

B29: nuoA -52 (dsDNA)
DNA 1: CCGGTCACCGCCCGGCCGCCGCGCTGGC
DNA 2: GCCAGCGCGGCGGCCGGGCGGTGACCGG
binding result: no binding

B30: wbbL2 (dsDNA)
DNA 1: TGGATCGCTGCCGATACACCGCCGATTT
DNA 2: AAATCGGCGGTGTATCGGCAGCGATCCA
binding result: no binding

B31: lipF -214 (dsDNA)
DNA 1: GGGCTCCCATCGAGATCACCGAAAGCGG
DNA 2: CCGCTTTCGGTGATCTCGATGGGAGCCC
binding result: no binding

B32: Rv2331 (dsDNA)
DNA 1: GTCCTCGCAGCAAGAAAACAGCGAAAGC
DNA 2: GCTTTCGCTGTTTTCTTGCTGCGAGGAC
Kd: 130 ± 6.1 nM

B33: sirA (dsDNA)
DNA 1: CGTCTCCCAGCGGATTCCCGGGTCGGCC
DNA 2: GGCCGACCCGGGAATCCGCTGGGAGACG
Kd: 332 ± 17 nM

B34: espA -215 (dsDNA)
DNA 1: CGCATTGTCGCAGCGCAGTTGCAGGAGGGCAA
DNA 2: TTGCCCTCCTGCAACTGCGCTGCGACAATGCG
Kd: 1590 ± 50 nM

B35: ptrBa -162 (dsDNA)
DNA 1: TTGTCCGCAGCTGGCTCACCGGCTCCGA
DNA 2: TCGGAGCCGGTGAGCCAGCTGCGGACAA
Kd: 980 ± 77 nM

B36: cyp123 (dsDNA)
DNA 1: AGATCCACCGCCGCATCACATCGGCGAT
DNA 2: ATCGCCGATGTGATGCGGCGGTGGATCT
binding result: no binding

B37: umaA (dsDNA)
DNA 1: TGACGCAAGGCGAGATCACAGACCGAGA
DNA 2: TCTCGGTCTGTGATCTCGCCTTGCGTCA
Kd: 1200 ± 58 nM

B38: Rv2010 (dsDNA)
DNA 1: GAACTCGTGGCCGCCGCACAGCGGATGT
DNA 2: ACATCCGCTGTGCGGCGGCCACGAGTTC
Kd: 637 ± 16 nM

B39: pks2 (dsDNA)
DNA 1: AAAGACACAGCTACATCGAAGGATTGCT
DNA 2: AGCAATCCTTCGATGTAGCTGTGTCTTT
Kd: 154 ± 12 nM

B40: nuoA -63 (dsDNA)
DNA 1: GTCACGGCAGCCCGGTCACCGCCCGGCC
DNA 2: GGCCGGGCGGTGACCGGGCTGCCGTGAC
binding result: no binding

B41: icl -400 (dsDNA)
DNA 1: TCATCTCCCACGTTCACCCGGCTGGTTCG
DNA 2: CGAACCAGCCGGGTGAACGTGGGAGATGA
binding result: no binding

B42: fas (dsDNA)
DNA 1: CGGCGTAGAGCGAATTCCCAGCATAACG
DNA 2: CGTTATGCTGGGAATTCGCTCTACGCCG
Kd: 144 ± 6 nM

B43: phoP -64 (dsDNA)
DNA 1: GACTGTTAGCAGACTACTGGCAACGAGCTTTC
DNA 2: GAAAGCTCGTTGCCAGTAGTCTGCTAACAGTC
binding result: no binding

B44: PPE19 (dsDNA)
DNA 1: CCGTTCTCCGGACAATCACGGCCCGACC
DNA 2: GGTCGGGCCGTGATTGTCCGGAGAACGG
binding result: no binding

B45: lipF -572 (dsDNA)
DNA 1: AGACGTACAGCAAACTCCCAGTCATACA
DNA 2: TGTATGACTGGGAGTTTGCTGTACGTCT
Kd: 115 ± 8 nM

B46: icl -350 (dsDNA)
DNA 1: GGTTGGTCGACCGCGCTGTTACAACGCTCAC
DNA 2: GTGAGCGTTGTAACAGCGCGGTCGACCAACC
binding result: no binding

B47: devR -155 (dsDNA)
DNA 1: GTGCGTGCCGTCATCTGGCCGCCAACGCAA
DNA 2: TTGCGTTGGCGGCCAGATGACGGCACGCAC
binding result: no binding

B48: Rv2633c (dsDNA)
DNA 1: TGATTCACAGCTACCTCACATTAATGGG
DNA 2: CCCATTAATGTGAGGTAGCTGTGAATCA
Kd: 37 ± 3.7 nM

B49: cdh (dsDNA)
DNA 1: GCGAGCAGGGCTGCCGCACAGCGATCTT
DNA 2: AAGATCGCTGTGCGGCAGCCCTGCTCGC
Kd: 935 ± 52 nM
